According to patent publication US20230220048A1:

Target: recombinant human FcRn (human) (UniProt P55899)
Experiment: SPR, pH 5.8 (comparison value, data not shown)

Chain of recombinant human FcRn (human) (P55899 24-297): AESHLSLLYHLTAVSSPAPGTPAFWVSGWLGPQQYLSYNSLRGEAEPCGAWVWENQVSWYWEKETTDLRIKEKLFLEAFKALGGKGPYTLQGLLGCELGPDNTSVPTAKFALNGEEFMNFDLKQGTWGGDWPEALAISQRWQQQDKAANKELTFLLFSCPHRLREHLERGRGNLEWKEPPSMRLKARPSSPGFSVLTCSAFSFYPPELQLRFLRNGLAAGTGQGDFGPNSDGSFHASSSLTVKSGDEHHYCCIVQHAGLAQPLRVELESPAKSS

In the case of “wild type HSA (from UniProt P02768 25-607)”, the Kd is reported as 1000 to 2000 nM.
